Test results reported in a protein production outcome set (Wang et al. 2014).

Test: label from the status in PepcDB records
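Also: failed if final PepcDB status was selected cloned or expressed and not failed if soluble or beyond.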

| Sequence | protein production |
| --- | --- |
| MVALRGKEIDAFLARPDAGRPIVLLYGPDAGLVRERADALIASAVDDPNDPFSLVRLDGDELSAEPSRLVDEAMTVPLFGGQRAIRVRAGSRSFASGIDTLAEMGVKDCRIVIEAGELRPESPLRKACERAKTAVAIGCYPDTERDLAKLMDDELRIANLRIAQDARAALMSFLGGDRQASRNELRKLTLYAHGKGEITLEDVMAVVADASELKLDPIVDGAFAGRPDIVETEFAKAMIAGTYPGVIISAAQRQAAWLHKSALAIADGQPASAVLDGGFPRLHFSRKPAVETALRNFSVARLAAIIEQLATAALDTRKQSTLAAAIAQRTLMAIAANAKRRGLEHHHHHH | failed |
| NVYDLANELERAVRALPEYQAVLTAKSAIESDADAQVLWQDFLATQSKVQEMMQSGQMPSQEEQDEMSKLGEKIESNDLLKVYFDQQQRLSVYMSDIEKIVFAPMQDL | not failed |
| MTESFTRRERLRLRRDFLLIFKEGKSLQNEYFVVLFRKNGLDYSRLGIVVKRKFGKATRRNKLKRWVREIFRRNKGVIPKGFDIVVIPRKKLSEEFERVDFWTVREKLLNLLKRIEG | not failed |
| MERDENYLRAKKRVENLKAFYIHLTVYILVNLMLFFINISSDSSKLWFLYPLAGWGIGIVIHALTTFPVGIFGKEWEERKIKEYMEKDK | failed |
| MKITRQIFIYFSFLMAVALFFSCKTTEKAVKSPVTEETKKAEKTGKKSPREEFNDKLTHLSKKGDLEGILKLIDESDPELTKDFKIQYLKLSILISMRKTKEAETFADELSKAYPNNTEILYAQVMLAQAENNTQKKNQYLKKILAINPKDSRALTEQGLDFYSAKKYNDARRKFIEAYKADPKCTEALIGLGRINYLEGKLDQAEANLTAVLEQEPNNSTALAELARIKSETNRMYQALQDINRAAELEPNNPSHWNDIGSYNLTIGRKEEAKKAYDKVIELTPDSYVAYIYRAGINDELGYKEDALADYIKVCNLYPPYYFALEGAGILLWEKGDWLNAGTAFLKALNKAPGSYQYALLYAISLYKQNKKPDAKKFMQNYLKSINRTEKENEYFLCRLFIDFAGDSELINRATAETDMVKKGRLFFYLGEFYNLTKKYTLAEKCYVQVMSIENPAFFEYRFAKKAMDEFNSSNGK | failed |
| MLMTLAATTSVSFNSKLLLFRIRCSDSNPKRGFGSKKEEKDPALQQRKSSSKQSVSVPRKAPGLNTQFEGKSGRSFDIDFDERLENIRRSALEQKKTEVVKEFGPIDYDAPVKSDQKTIGLGTKVGVGIAVVVFGLVFALGDFLPTGSDSPTKNTTVVKNQISEEEKATLQQRLKEFETTLNGTPQDQAALEGAAVTLTELGDYSRAAAFLEKLAKERPTDPDVFRLLGEVNYELNNYEGSIAAYKISEKVSKGIDLEVTRGLMNAYLAAKKPDEAVKFLLDTRERLNTKKTSTTDSVTDETNLDPIQVELLLGKAYSDWGHISDAIAVYDQLISAHPEDFRGYLAKGIILRENGSRGDAERMFIQARFFAPNKAKALVDRYSKL | failed |
| FQQTQDWVFIIDEKISRITANQSMRAVFDWPEEEFDFSDKLLGVSQKRRSFYRKLMLSLKEGEHWRGEELIVTANKDEYHVIINVTVGFSSVTNALHYLFVLTDIS | failed |
| LEAVAPERPRCAYCSAEASKRCSRCQNEWYCCRECQVKHWEKHGKTC | not failed |
| MASSTTSTVTDLSAALVMAPVPLADWLIILPIALCIGAGAVLMMMRHAIRHHAAVAIAALSLLVILNAALLWKVATQGPFTMVMGRWLPPFGIAFTADLTGALLSLAAAIVALAGAIHAGADIDASGRRYGFYPFLMLLMAGVTGAFLTGDLFNLYVWFEVLLISSFGLIVLGSTREQIDGALKYAILNLIGTTLFLITVGYLYAIFGTLNMADIALKATELRGTAPLMTLASLFALAFAMKAAAFPVNFWLPASYHTPRIVVSALFGGLLTKVGIYSLLRVMVMLFPVEREELSIVIAISAALTMVLGAMGALAQNDIRRMLGYIVISGIGYMMAGIAIGTPSGVSGAIFYALHSMVLMTALYLAAGHAARLGGGFSLTSLGDLYRQAPWFSALALALFFAGSGLPPFSGFWPKAVLVKSAIDIGAWWLAAAILVSGFIATIAFGRVFLLCFWRPVTTSAGQPALQPAARPPAPSVAPLVGLTLLVVFFGLFPESLLNLSQQAAAGLGNPQAYIQSVFPQGGKP | failed |
| MRQHWRMRHLALACFLLAPGAALASDCPTAPDHSERIAHLIEDIRAAPNEMQARTISNRMWEIWADAPDEAAQAILDNGMSRRRAWDLLGALSEFDRLVAYCPDYAEGYNQRAFANFLRQDFAAALIDLDRALALSPNHVAAMSGRALTLMGLGRIDEARSVLNQALELNPWLPERGLVAPGGPLEPKGKDI | failed |
| MTTANTPVRPKSAIDAVADAYTEKLIELNPSFATTLGLPGHETEYQDYSPAGAAAHAEATRLALEALAGLEPSDDVDAVTLDAMRERLGLELEIHQSGWDAADLNNIASPAQDIRAIFDLMPTDTVEHWEHIAGRAANVPGAIEGYIASLRAAKDDRKVAAARQIRIVIEQTGRYAAEDGFFAKMAADASLGDAPLPAEVQDKLDAGTSAARSAYSALGAFLRDELLPVAPEKDAVGRERYSLASRSFIGAEVDLEETYAWGVQELERLISEQEKVAGQIKPGASIEEAKSILNNDPARQIKGTDALKAWMQELSDRAVSELADVHFDIPDVMKTLECMIAPTDEGGIYYTGPSDDFSRPGRMWWSVPAGEDTFTTWSETTTVFHEGVPGHHLQVATATYRRELLNNWRRNVCWVSGHGEGWALYAEQLMLELGYLKDPGDHMGMLDGQRMRAARVVFDIGVHLELPVPERWGTGTWTPEKGFDFLKANLDISEGQLQFEFTRYLGWPGQAPSYKVGQRLWEQIRAELESREGFDLKSFHSKALNIGSVGLDVLRRALL | not failed |
| MFRSKRYQMVAYAITGSALWGLSGTVSSILFSRYGMPFSTLVTIRMVFSGLILLAAGRGFVGKKDLPMFLVFAIPGLFGVQILYLATISFSNAPVATLLQFLFFPMVAVYDYITIRSLTVSSLILALIFSVAGIYELTTGFPLGGTALRISLTALILGLATAATAALYTVTSARIVKEYGGLRTVASGMMVGGLVSLPLGSFSGVPYFHGLGQADVIPVLALTIFVIVFGTSMAFYLYINSMRYISPVEAAVSGTFEPVAAAMSSYLLLGIKLSAMQYLGGALIVISILVIVISKNRRG | failed |
| DPREVAGGYVEKLCARYGLADVRVVQSPAMGRGLTGELGNAGAALLEEVVKDGMTVGVSWGDTMLAVSEHLRTLPLVDVKVVQLKGGHSHTARNTNDMVTLTRFSRALNAEMMMLPLPVILDSKEAKELVVKDRHIASMLNLGAHCDVAVFTVGAVKSESLLLNLGYLSPSEQARLMEHAVGDVCSRFYDAQGEVADPDIDARTVGISLADLKKRPVRVLVAGGLEKAPAIEAALRTGVATHVVIDHATAQRVVEMA | failed |
| MNQVEMTEFPVGKPQEALYGVASTPDGALWFTLAKGNAIGRLSPDGAVSRFPLPHTDGQPTTITCGPDGRPWFTLSSANAIGRLAPDGALRMFELPRPASRPFGIAGGHDGCLWFAEMAGDRIGRITIDGDIEEYDLPVKGGYPSCMAAGRDGLMWFTLNQAGAVGSISATAAPRIFPLGAADAAPVGIASDAQGALWIAQAGNGAIVRFDAGGRITEFPLHSRAARPHAIAADAAGNLWFTEWGANRIGRISEAGDLAGYELAAPGSEPHGIAIDPHGCVWAALETGRLVRLQASPRDLEHHHHHH | not failed |
| MSFYIQLASLSIIILYVLLLFRNVDPLVATAVCVGLGFLWNISTPIDIGNAMADALGSFMALVGFIIMLGRGLGEVLTHTQVSHTLVHQIVYGVGVNTQRRAKIGIVLSSFIIVGLLGTLAGGLAILAPSLRPIAGSVGLSRPSLAVLMQASAEEALILGPFAPPVVTLLGVTGLSYGTVFLYASLPIAVVTLITTWFMASRLQKLYINEPCEDENSTEPFTPNRQQKRVTLIFLISFLFCVVYGLFTQAKTSYVIFVMLFLALITGLSCRLGLKQIFNLLFEGMQKSLHLFFLFILFDPFMALIHQAGGFNALTELLTPLINLGGKPVLSILIGFTGAFGMPGAAEATIKMLHQLFSPSVLQMQLPLITFALCMLFATRVTNYAYPGANMFAAMGFAGSENVKAMIQNGLVVTGVQVAFLIVYSLFIP | failed |
| MQANRSQLHSPPGTGSSEDASTPQCVHTRLTGEGSCPHSGDVHIQINSIPKECAENASSRNIRSGVHSCAHGCVHSRLRGHSHSEARLTDDTAAESGDHGSSSFSEFRYLFKWLQKSLPYILILSVKLVMQHITGISLGIGLLTTFMYANKSIVNQVFLRLNFFKSYFGPFELLGSILDCWNYRLHSEILFHGLKMPYFIGAFFHHAF | failed |
| SAATMKKAAAEDVNVTFEDQQKINKFARNTSRITELKEEIEVKKKQLQNLEDACDDIMLADDDCLMIPYQIGDVFISHSQEETQEMLEEAKKNLQEEIDALESRVESIQRVLADLKVQLYAKFGSNINLEADES | failed |
| QVKSERSQKIFLEFVSANPTGPLHIGHARGAVFGDSLAKIARFLGHEVLCEYYVNDMGSQIRLLGLSVWLAYREHVLKESVTYPEVFYKGEYIIEIAKKANNDLEPSLLKENEETIIEVLSGYARDLMLLEIKDNLDALGIHFDSYASEKEVFKHKDAVFEQLEKANALYEKDSKIWLKSSLYQDESDRVLIKEDKSYTYLAGDIVYHDEKFKQDYTKYINIWGADHHGYIARVKASLEFLGYDSNKLEVLLAQMVRLLKDNEPYKMSKRAGNFILIKDVVDDVGKDALRFIFLSKRLDTHLEFDVNTLKKQDSSNPIYYIHYANSRIHTMLEKSPFSKEEVLQTP | failed |
| QLSSFETCAEKEESANTTESAIFEYHCEMSFDPNLLHNNGHNGYPNGTSAALRETGVIEKLLTSYGFIQCSERQARLFFHCSQYNGNLQDLKVGDDVEFEVSSDRRTGKPIAVKLVKIKQEILPEERMNGQVVCAVPHNLESKSPAAPGQSPTGSVCYERNGEVFYLTYTPEDVEGNVQLETGDKINFVIDNNKHTGAVSARNIMLLKKKQARCQGVVCAMKEAFGFIERGDVVKEIFFHYSEFKGDLETLQPGDDVEFTIKDRNGKEVATDVRLLPQGTVIFEDISIEHFEGTVTKVIPKVPSKNQNDPLPGRIKVDFVIPKELPFGDKDTKSKVTLLEGDHVRFNISTDRRDKLERATNIEVLSNTFQFTNEAREMGVIAAMRDGFGFIKCVDRDVRMFFHFSEILDGNQLHIADEVEFTVVPDMLSAQRNHAIRIKKLPKGTVSFHSHSDHRFLGTVEKEATFSNPKTTSPNKGKEKEAEDGIIAYDDCGVKLTIAFQAKDVEGSTSPQIGDKVEFSISDKQRPGQQVATCVRLLGRNSNSKRLLGYVATLKDNFGFIETANHDKEIFFHYSEFSGDVDSLELGDMVEYSLSKGKGNKVSAEKVNKTHSVNGITEEADPTIYSGKVIRPLRSVDPTQTEYQGMIEIVEEGDMKGEVYPFGIVGMANKGDCLQKGESVKFQLCVLGQNAQTMAYNITPLRRATVECVKDQFGFINYEVGDSKKLFFHVKEVQDGIELQAGDEVEFSVILNQRTGKCSACNVWRVCEGPKAVAAPRPDRLVNRLKNITLDDASAPRLMVLRQPRGPDNSMGFGAERKIRQAGVID | not failed |
| MDTDFRVTGRNAAALFALTIHRGDGMVLLGMDWKNGRPPIDFVGFAIQYREPGTDFFKNVRNRIGFPGQPVPADGIRTTEAPIQKFRWVHFPFNADLPGKFLYRVTPKFMDAAGGLASGEAQEAELALMRETIPGKLNVAFTRGFVSSQAFVRNFAPDAPTIITLVPPVGDEGLDFVPTHADAERALAWMGFEARAETLDLLDRAQAAGAEVRVIAYDLNLPEVVTRLEALGPKLKIIIDDSARTDGHGRPDSPETKAAERLIASAGAANVKRQHMANLQHQKSIAVRGGGISTVLYGSTNLSWRGLYVQSNNSLAVHSEKAIDDYFTAFESYFTAKRAADFRSSASSAGWIDLGLDGVDAKVAFSPHSDANGRLDEIGADIDTAQSSVLFSLAFLGQMTRGAIGPALGRALERPEVHVMGIADAEVRAGNLGLNVLTPDNRRRVVRAAALTGNVPPPFLTEPSGLAGVDGNQRGTRMHHKFVVLDFDKPTARVYLGSYNFSNPADDENGENLVVVRDRTVATSYMIEALRMYDHYVFRVASEASDGPARPLELKRPPQPGGTPWFERDWTDPIRARDRELFARAE | failed |
